Reference: USRE46585 (LABORATOIRE FRANCAIS DU FRACTIONNEMENT ET DES …, dated 2017)
Where a chain is given by its changes, count along the chain named. Where two headings read alike, the source gives them in different places. Each block holds one binder with its values, some of them ahead of it.

How the values were obtained:
FcRn-p3 fusion protein [1] = molecular target: T1, FcRn-p3 fusion protein (human, UniProt P55899 24-297; P61769 21-119); assay: phage ELISA pH6
T1 construct: baculovirus expressed; coated on ELISA wells; not shown: amino terminal part of bacteriophage p3 protein and CVDE protein

FcRn-p3 fusion protein [2] = molecular target: T1, FcRn-p3 fusion protein; assay: ELISA pH6, soluble Fc on coated FcRn-p3
[3] = molecular target: T2, recombinant soluble human FcRn (human, UniProt P55899 24-297; P61769 21-119); assay: SPR pH6, immobilized FcRn, steady state
T2 construct: amine-coupled to the SPR chip

FcRn-p3 fusion protein [4] = molecular target: T1, FcRn-p3 fusion protein; assay: phage ELISA pH6; remark: listed apart in the source
FcRn-p3 fusion protein [5] = molecular target: T1, FcRn-p3 fusion protein; assay: phage ELISA pH6 (est.)
FcRn-p3 fusion protein [6] = molecular target: T1, FcRn-p3 fusion protein; assay: phage ELISA pH6 (est.); remark: listed apart in the source
FcRn-p3 fusion protein [7] = molecular target: T1, FcRn-p3 fusion protein; assay: phage ELISA pH6; remark: listed apart in the source
FcRn-p3 fusion protein [8] = molecular target: T1, FcRn-p3 fusion protein; assay: phage ELISA pH6 (est.); remark: listed apart in the source

EC50 (FcRn-p3 fusion protein [2]): 7.3 nM | Kd [3]: 5.9 nM
B5: C6A_74 (soluble recombinant Fc polypeptide) (other)
chain: CPPCPAPELLGGPSVFLFPPKPKDTLMISRTPEITCVVVDVSHEDPEVKFNWYVDGVEVHNAKTKPREEQYNSTYRVVSVLTVLHQDWLDGKEYKCKVSNKALPAPIEKTISKAKGQPREPQVYTLPPSRDELTKNQVSLTCLVKGFYPSDIAVEWESNGQPENNYKTTPPVLDSDGSFFLYSKLTVDKSRWQQGNVFSCSVMHEALHYHYTQKSLSLSPGK
notes: EU numbering; E. coli periplasmic expression; not shown: C-terminal 6xHis tag and V5 tag

Ratio/Fc-H (FcRn-p3 fusion protein [4]): 7.8 fold | Ratio/Fc-WT (FcRn-p3 fusion protein [5]): 25 fold | Ratio/FWT (FcRn-p3 fusion protein [6]): 25 fold | Ratio/Fc-H (FcRn-p3 fusion protein [7]): 7.8 fold
B6: T5A_87 (other)
chain: B5 chain with I34V, A105V, Q137R
notes: EU numbering

Ratio/Fc-H (FcRn-p3 fusion protein [4]): 8 fold | Ratio/Fc-WT (FcRn-p3 fusion protein [5]): 25.7 fold | Ratio/FWT (FcRn-p3 fusion protein [6]): 25.7 fold | Ratio/Fc-H (FcRn-p3 fusion protein [7]): 8 fold | phage-ELISA ratio/WT (FcRn-p3 fusion protein [8]): 25.7 fold
B7: C6A_72 (other)
chain: B5 chain with T25A, I34V, D90N, N164K
notes: EU numbering

EC50 (FcRn-p3 fusion protein [2]): 3.7 nM | ELISA ratio/Fc-WT (Fc-WT EC50 / variant EC50) (FcRn-p3 fusion protein [2]): 124 fold | Kd [3]: 7.2 nM | SPR Ratio/Fc-WT (Fc-WT Kd / variant Kd) [3]: 4.2 fold
B9: C6A_69 (soluble recombinant Fc polypeptide) (other)
chain: B5 chain with I34V, T82A, A105V, E157V, N164T
notes: as for B5

EC50 (FcRn-p3 fusion protein [2]): 145 nM | ELISA ratio/Fc-WT (Fc-WT EC50 / variant EC50) (FcRn-p3 fusion protein [2]): 3 fold | Kd [3]: 22.7 nM | SPR Ratio/Fc-WT (Fc-WT Kd / variant Kd) [3]: 1.3 fold
B12: T5A_81 (soluble recombinant Fc polypeptide) (other)
chain: B5 chain with I34V, V39E, D90N, A153V, R191K, Y209N
notes: as for B5

EC50 (FcRn-p3 fusion protein [2]): 166 nM | Kd [3]: 13.7 nM
B13: T5A_94 (soluble recombinant Fc polypeptide) (other)
chain: B5 chain with I34V, V39E, D90N, A153T, P171L, Y209N
notes: as for B5

Kd [3]: 15.4 nM
B15: T5A_58 (soluble recombinant Fc polypeptide) (other)
chain: B5 chain with F16L, I34V, V39E, T82P, D90N, A153V, H208R, Y209N
notes: as for B5

Ratio/Fc-WT (FcRn-p3 fusion protein [1]): 6.3 fold
B16: L6B_31 (other)
chain: B5 chain with P5T, I34V, V80A, T82A, D90N, A153V, L173P, Y209S
notes: EU numbering

EC50 (FcRn-p3 fusion protein [2]): 7.8 nM | ELISA ratio/Fc-WT (Fc-WT EC50 / variant EC50) (FcRn-p3 fusion protein [2]): 59 fold | Kd [3]: 12.4 nM | SPR Ratio/Fc-WT (Fc-WT Kd / variant Kd) [3]: 2.4 fold
B17: C6A_72 (soluble recombinant Fc polypeptide) (other)
chain: B5 chain with T25A, I34V, D90N, N164K
notes: as for B5

Ratio/Fc-H (FcRn-p3 fusion protein [4]): 8.9 fold | Ratio/Fc-WT (FcRn-p3 fusion protein [5]): 28.4 fold | Ratio/FWT (FcRn-p3 fusion protein [6]): 28.4 fold | Ratio/Fc-H (FcRn-p3 fusion protein [7]): 8.9 fold | phage-ELISA ratio/WT (FcRn-p3 fusion protein [8]): 28.4 fold
B18: C6A_69 (other)
chain: B5 chain with I34V, T82A, A105V, E157V, N164T
notes: EU numbering

Ratio/Fc-H (FcRn-p3 fusion protein [4]): 6.7 fold | Ratio/Fc-WT (FcRn-p3 fusion protein [5]): 21.4 fold | Ratio/FWT (FcRn-p3 fusion protein [6]): 21.4 fold | Ratio/Fc-H (FcRn-p3 fusion protein [7]): 6.7 fold
B20: T7A_92 (other)
chain: B5 chain with I34V, V39E, D90N, P171L, S190N, Y209S
notes: EU numbering

Ratio/Fc-H (FcRn-p3 fusion protein [4]): 4.6 fold | Ratio/Fc-WT (FcRn-p3 fusion protein [5]): 14.9 fold | Ratio/FWT (FcRn-p3 fusion protein [6]): 14.9 fold | Ratio/Fc-H (FcRn-p3 fusion protein [7]): 4.6 fold | phage-ELISA ratio/WT (FcRn-p3 fusion protein [8]): 14.9 fold
B21: T5A_81 (other)
chain: B5 chain with I34V, V39E, D90N, A153V, R191K, Y209N
notes: EU numbering

Further lines, the binder ahead of its results:

B1: S4A_05 (other)
chain: B5 chain with I34V, D90N, A153V, D176A
notes: EU numbering
Ratio/Fc-WT (FcRn-p3 fusion protein [1]): 3.7 fold

B2: S4A_36 (other)
chain: B5 chain with P5Q, I34V, V39A, D90N, P127S, A153V, Y209N
notes: EU numbering
Ratio/Fc-WT (FcRn-p3 fusion protein [1]): 4.5 fold

B3: B5A_25 (other)
chain: B5 chain with F18L, I34V, T186A, Y209S
notes: EU numbering
Ratio/Fc-WT (FcRn-p3 fusion protein [1]): 3.6 fold

B4: S4A_24 (other)
chain: B5 chain with I34V, V39E, R76C, D90N, A153V, E157G, Y209N
notes: EU numbering
Ratio/Fc-WT (FcRn-p3 fusion protein [1]): 5.4 fold

B8: S4A_14 (other)
chain: B5 chain with I34V, N51S, D90N, A153V, Y209S
notes: EU numbering
Ratio/Fc-WT (FcRn-p3 fusion protein [1]): 5.9 fold

B10: S4A_17 (other)
chain: B5 chain with I34V, V77A, D90N, N164T, Y209S
notes: EU numbering
Ratio/Fc-WT (FcRn-p3 fusion protein [1]): 3.8 fold

B11: B5A_17 (other)
chain: B5 chain with I34V, Q137R
notes: EU numbering
Ratio/Fc-WT (FcRn-p3 fusion protein [1]): 4.6 fold

B14: S4A_25 (other)
chain: B5 chain with I34V, D40G, D90N, S183T, S219F
notes: EU numbering
Ratio/Fc-WT (FcRn-p3 fusion protein [1]): 4.2 fold

B19: L3A_39 (other)
chain: B5 chain with I34V, D90N, S150G, P170S, Y209S
notes: EU numbering
Ratio/Fc-WT (FcRn-p3 fusion protein [1]): 3.2 fold

B22: S4A_07 (other)
chain: B5 chain with I34V, T82P, D90N, N164T
notes: EU numbering
Ratio/Fc-WT (FcRn-p3 fusion protein [1]): 6.6 fold
